Test [1] has as its target PD-1 on Jurkat NFAT-FLuc PD-1 cells (UniProt Q15116 25-288, limits assumed). Kind of test: cell-based or functional assay.
Test [2] deals with T1, PD-1-Fc receptor (human, UniProt Q15116 25-167, limits assumed).
T1 construct: also called human PD-1 receptor; not shown: Fc
In words: BLI (OctetRed 96), PD-1-Fc in solution, 1:1 model. How it is done: (§1) The affinity constants for binding of IL15SA bispecific immunocytokines (hereinafter referred to as anti-PD1-Fab-CK_IL15Ra_Hc_IL15CH1FcknobLALA anti-PD-L1-Fab-CK_IL15Ra_Hc_IL15CH1FcknobLALA) to IL2βγ and human PD-1/PD-L1 receptors were measured using OctetRed 96 according to the ForteBio instructions. AR2G biosensors were pre-rehydrated for an hour in mQ. After the activation of biosensors, the bispecific immunocytokines at a concentration of 25 μg/ml in acetate buffer pH4 were non-specifically (by NH₂ groups) immobilized onto the biosensor. The sensors were then immersed into wells containing Human CD122/IL-2RB Protein (Fc Tag) or PD-1-Fc receptor or PD-L1-Fc receptor (1 and 0.5 μg/ml) in PBS buffer supplemented with 0.1% Tween-20 and 0.1% BSA to associate the bispecific super-agonist and the test receptor. The sensors were then immersed in a buffer solution for a subsequent dissociation step.
(§2) The instrumental data, after subtracting a reference signal, were analyzed using Octet Data Analysis software (Version 8.0) in accordance with the standard procedure and using 1:1 interaction model.

The target of test [3] is T2, Human CD122/IL-2RB Protein (Fc Tag) (human, UniProt P14784 27-240).
T2 construct: No gamma chain is mentioned; also called human IL2βγ; human IL2βγ-Fc; not shown: Fc tag
T2 sequence (looked up): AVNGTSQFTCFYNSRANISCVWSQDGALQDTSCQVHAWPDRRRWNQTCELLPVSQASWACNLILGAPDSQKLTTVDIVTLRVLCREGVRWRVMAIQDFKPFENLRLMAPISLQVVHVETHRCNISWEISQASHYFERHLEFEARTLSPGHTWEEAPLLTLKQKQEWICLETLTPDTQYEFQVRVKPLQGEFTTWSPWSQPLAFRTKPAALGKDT
In words: BLI (OctetRed 96), CD122/IL-2RB-Fc in solution; Response 0 and KD 0. The procedure: as §1, §2

The target in test [4] is T3, PD-L1-Fc receptor (human, UniProt Q9NZQ7 19-238, limits assumed).
T3 construct: also called human PD-L1 receptor; not shown: Fc
In words: BLI (OctetRed 96), PD-L1-Fc in solution; Response 0 and KD 0. How it is done:
as §1, §2

Test [5] addresses T3, PD-L1-Fc receptor. In words: BLI (OctetRed 96), PD-L1-Fc in solution, 1:1 model.

T3 sequence (Q9NZQ7 19-238 limits assumed): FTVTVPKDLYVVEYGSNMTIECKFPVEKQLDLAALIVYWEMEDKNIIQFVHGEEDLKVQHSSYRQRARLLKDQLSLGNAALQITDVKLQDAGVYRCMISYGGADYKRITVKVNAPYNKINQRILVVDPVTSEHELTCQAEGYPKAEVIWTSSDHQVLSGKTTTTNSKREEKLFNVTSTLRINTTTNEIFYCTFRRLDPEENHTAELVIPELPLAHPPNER
Chain of PD-1 on Jurkat NFAT-FLuc PD-1 cells (Q15116 25-288 limits assumed): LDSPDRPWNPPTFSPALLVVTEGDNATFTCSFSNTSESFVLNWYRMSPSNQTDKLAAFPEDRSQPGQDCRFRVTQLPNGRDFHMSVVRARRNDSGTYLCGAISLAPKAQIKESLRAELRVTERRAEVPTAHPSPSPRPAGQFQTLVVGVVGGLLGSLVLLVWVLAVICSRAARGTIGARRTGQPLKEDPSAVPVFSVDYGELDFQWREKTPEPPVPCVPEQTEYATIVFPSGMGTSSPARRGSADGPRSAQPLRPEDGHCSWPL
T1 sequence (Q15116 25-167 limits assumed): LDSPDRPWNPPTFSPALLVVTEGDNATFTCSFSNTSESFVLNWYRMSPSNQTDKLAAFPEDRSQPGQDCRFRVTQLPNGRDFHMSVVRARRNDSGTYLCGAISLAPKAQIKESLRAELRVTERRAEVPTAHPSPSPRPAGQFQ

B1: prolgolimab (antibody, V domains shown)
VH: QVQLVQSGGGLVQPGGSLRLSCAASGFTFSSYWMYWVRQVPGKGLEWVSAIDTGGGRTYYADSVKGRFAISRVNAKNTMYLQMNSLRAEDTAVYYCARDEGGGTGWGVLKDWPYGLDAWGQGTLVTVSS
VL: QPVLTQPLSVSVALGQTARITCGGNNIGSKNVHWYQQKPGQAPVLVIYRDSNRPSGIPERFSGSNSGNTATLTISRAQAGDEADYYCQVWDSSTAVFGTGTKLTVLQ
notes: also called Anti-PD-1 prologolimab; BCD100
In the case of B1, the “EC50; NFAT-luciferase luminescence (RLU x 10^-3) in co-culture of Jurkat NFAT-FLuc PD-1 cells and Raji PDL1 cells with aCD3/aTAA1 at 1 ng/ml; relief of PD-1/PDL1 inhibition” value in test [1] worked out at 0.027 µg/mL. In test [2], binding was put at a Kd of 0.186 nM. Further, the binding result was “no binding (tested: 1 and 0.5 µg/ml)” in test [3]; “no binding (tested: 1 and 0.5 µg/ml)” in test [4].

B2: BCD-135 (antibody)
chain 1: not shown
chain 2: QTVVTQEPSLSVSPGGTVTLTCGLSSGTVTAINYPGWYQQTPGQAPRTLIYNTNTRHSGVPDRFSGSISGNKAALTITGAQAEDEADYYCALYMGNGGHMFGGGTKLTVLGQPKAAPSVTLFPPSSEELQANKATLVCLISDFYPGAVTVAWKADSSPVKAGVETTTPSKQSNNKYAASSYLSLTPEQWKSHRSYSCQVTHEGSTVEKTVAPTECS
B2: the Kd in test [5] was under 0.001 nM.

The values above are taken from patent US20230011234A1 (JOINT STOCK COMPANY BIOCAD, published 2023).
